These results are taken from US20160272691A1, “COMPOSITIONS AND METHODS FOR TREATING CONDITIONS ASSOCIATED WITH y-HERPESVIRUSES” (NDSU RESEARCH FOUNDATION, priority 2013, published 2016).

Test [1] has as its target T1, M11 expressed in MCF7 cells (murine γHV68) (UniProt P89884).
T1 sequence: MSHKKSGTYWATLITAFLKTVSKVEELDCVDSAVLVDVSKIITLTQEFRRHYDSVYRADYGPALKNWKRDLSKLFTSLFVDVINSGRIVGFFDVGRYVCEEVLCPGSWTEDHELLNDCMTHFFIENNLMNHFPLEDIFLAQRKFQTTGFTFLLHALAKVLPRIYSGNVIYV
Briefly: cell-based or functional assay.

Test [2] addresses Bcl-XL expressed in MCF7 cells (UniProt Q07817). Briefly: cell-based or functional assay.

Sequence of Bcl-XL expressed in MCF7 cells (Q07817 whole entry): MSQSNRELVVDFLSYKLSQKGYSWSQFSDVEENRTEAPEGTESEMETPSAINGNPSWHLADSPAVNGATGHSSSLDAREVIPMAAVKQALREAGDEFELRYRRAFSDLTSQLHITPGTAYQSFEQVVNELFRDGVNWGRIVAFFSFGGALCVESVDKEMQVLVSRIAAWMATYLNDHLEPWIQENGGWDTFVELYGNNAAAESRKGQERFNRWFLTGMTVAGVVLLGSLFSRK

On to “Beclin 1 G120E+D121A double mutant, expressed in MCF7 cells (from UniProt Q14457 1-450)”, for which the M11-mediated down-regulation of autophagy (GFP-LC3 puncta per cell, MCF7) in test [1] was 0.228 p (t-test). In test [2], the Bcl-XL-mediated down-regulation of autophagy (GFP-LC3 puncta per cell, MCF7) was 0.00079 p (t-test).

Regarding “Beclin 1 K117A mutant, expressed in MCF7 cells (from UniProt Q14457 1-450)”, in test [1], the M11-mediated down-regulation of autophagy (GFP-LC3 puncta per cell, MCF7) is 0.157 p (t-test). Also, in test [2], the Bcl-XL-mediated down-regulation of autophagy (GFP-LC3 puncta per cell, MCF7) is 0.504 p (t-test).

For “Beclin 1 L112A mutant, expressed in MCF7 cells (from UniProt Q14457 1-450)”, the M11-mediated down-regulation of autophagy (GFP-LC3 puncta per cell, MCF7) in test [1] was 0.00065 p (t-test). In test [2], the Bcl-XL-mediated down-regulation of autophagy (GFP-LC3 puncta per cell, MCF7) was 0.0621 p (t-test).

For the substance “Beclin 1 F123A mutant, expressed in MCF7 cells (from UniProt Q14457 1-450)”, the M11-mediated down-regulation of autophagy (GFP-LC3 puncta per cell, MCF7) in test [1] was 0.0107 p (t-test). In test [2], the Bcl-XL-mediated down-regulation of autophagy (GFP-LC3 puncta per cell, MCF7) was 0.00246 p (t-test).

“Beclin 1 G120E mutant, expressed in MCF7 cells (from UniProt Q14457 1-450)”: in test [1], the M11-mediated down-regulation of autophagy (GFP-LC3 puncta per cell, MCF7) was 0.0313 p (t-test). Besides, the Bcl-XL-mediated down-regulation of autophagy (GFP-LC3 puncta per cell, MCF7) in test [2] is 0.0119 p (t-test).

Consider “Beclin 1 L116A mutant, expressed in MCF7 cells (from UniProt Q14457 1-450)”, for which the M11-mediated down-regulation of autophagy (GFP-LC3 puncta per cell, MCF7) in test [1] was 0.00432 p (t-test). For the same substance, the Bcl-XL-mediated down-regulation of autophagy (GFP-LC3 puncta per cell, MCF7) in test [2] is 0.00212 p (t-test).
